US20260250318A1, “COMPOSITIONS AND METHODS FOR CROSSING THE BLOOD BRAIN BARRIER” (VOYAGER THERAPEUTICS, INC., priority 2022, published 2026)

B1: TTM-002 capsid variant (AAV particle comprising the TTM-002 AAV9 capsid variant) (other)
chain 1: MAADGYLPDWLEDNLSEGIREWWALKPGAPQPKANQQHQDNARGLVLPGYKYLGPGNGLDKGEPVNAADAAALEHDKAYDQQLKAGDNPYLKYNHADAEFQERLKEDTSFGGNLGRAVFQAKKRLLEPLGLVEEAAKTAPGKKRPVEQSPQEPDSSAGIGKSGAQPAKKRLNFGQTGDTESVPDPQPIGEPPAAPSGVGSLTMASGGGAPVADNNEGADGVGSSSGNWHCDSQWLGDRVITTSTRTWALPTYNNHLYKQISNSTSGGSSNDNAYFGYSTPWGYFDFNRFHCHFSPRDWQRLINNNWGFRPKRLNFKLFNIQVKEVTDNNGVKTIANNLTSTVQVFTDSDYQLPYVLGSAHEGCLPPFPADVFMIPQYGYLTLNDGSQAVGRSSFYCLEYFPSQMLRTGNNFQFSYEFENVPFHSSYAHSQSLDRLMNPLIDQYLYYLSKTINGHDSPHKSGQNQQTLKFSVAGPSNMAVQGRNYIPGPSYRQQRVSTTVTQNNNSEFAWPGASSWALNGRNSLMNPGPAMASHKEGEDRFFPLSGSLIFGKQGTGRDNVDADKVMITNEEEIKTTNPVATESYGQVATNHQSAQAQAQTGWVQNQGILPGMVWQDRDVYLQGPIWAKIPHTDGNFHPSPLMGGFGMKHPPPQILIKNTPVPADPPTAFNKDKLNSFITQYSTGQVSVEIEWELQKENSKRWNPEIQYTSNYYKSNNVEFAVNTEGVYSEPRPIGTRYLTRNL
chain 2: TAPGKKRPVEQSPQEPDSSAGIGKSGAQPAKKRLNFGQTGDTESVPDPQPIGEPPAAPSGVGSLTMASGGGAPVADNNEGADGVGSSSGNWHCDSQWLGDRVITTSTRTWALPTYNNHLYKQISNSTSGGSSNDNAYFGYSTPWGYFDFNRFHCHFSPRDWQRLINNNWGFRPKRLNFKLFNIQVKEVTDNNGVKTIANNLTSTVQVFTDSDYQLPYVLGSAHEGCLPPFPADVFMIPQYGYLTLNDGSQAVGRSSFYCLEYFPSQMLRTGNNFQFSYEFENVPFHSSYAHSQSLDRLMNPLIDQYLYYLSKTINGHDSPHKSGQNQQTLKFSVAGPSNMAVQGRNYIPGPSYRQQRVSTTVTQNNNSEFAWPGASSWALNGRNSLMNPGPAMASHKEGEDRFFPLSGSLIFGKQGTGRDNVDADKVMITNEEEIKTTNPVATESYGQVATNHQSAQAQAQTGWVQNQGILPGMVWQDRDVYLQGPIWAKIPHTDGNFHPSPLMGGFGMKHPPPQILIKNTPVPADPPTAFNKDKLNSFITQYSTGQVSVEIEWELQKENSKRWNPEIQYTSNYYKSNNVEFAVNTEGVYSEPRPIGTRYLTRNL
chain 3: MASGGGAPVADNNEGADGVGSSSGNWHCDSQWLGDRVITTSTRTWALPTYNNHLYKQISNSTSGGSSNDNAYFGYSTPWGYFDFNRFHCHFSPRDWQRLINNNWGFRPKRLNFKLFNIQVKEVTDNNGVKTIANNLTSTVQVFTDSDYQLPYVLGSAHEGCLPPFPADVFMIPQYGYLTLNDGSQAVGRSSFYCLEYFPSQMLRTGNNFQFSYEFENVPFHSSYAHSQSLDRLMNPLIDQYLYYLSKTINGHDSPHKSGQNQQTLKFSVAGPSNMAVQGRNYIPGPSYRQQRVSTTVTQNNNSEFAWPGASSWALNGRNSLMNPGPAMASHKEGEDRFFPLSGSLIFGKQGTGRDNVDADKVMITNEEEIKTTNPVATESYGQVATNHQSAQAQAQTGWVQNQGILPGMVWQDRDVYLQGPIWAKIPHTDGNFHPSPLMGGFGMKHPPPQILIKNTPVPADPPTAFNKDKLNSFITQYSTGQVSVEIEWELQKENSKRWNPEIQYTSNYYKSNNVEFAVNTEGVYSEPRPIGTRYLTRNL
B2: TTM-002: AAV9 capsid variant comprising HDSPHK (SEQ ID NO: 2) in loop IV (protein)
chain 1: MAADGYLPDWLEDNLSEGIREWWALKPGAPQPKANQQHQDNARGLVLPGYKYLGPGNGLDKGEPVNAADAAALEHDKAYDQQLKAGDNPYLKYNHADAEFQERLKEDTSFGGNLGRAVFQAKKRLLEPLGLVEEAAKTAPGKKRPVEQSPQEPDSSAGIGKSGAQPAKKRLNFGQTGDTESVPDPQPIGEPPAAPSGVGSLTMASGGGAPVADNNEGADGVGSSSGNWHCDSQWLGDRVITTSTRTWALPTYNNHLYKQISNSTSGGSSNDNAYFGYSTPWGYFDFNRFHCHFSPRDWQRLINNNWGFRPKRLNFKLFNIQVKEVTDNNGVKTIANNLTSTVQVFTDSDYQLPYVLGSAHEGCLPPFPADVFMIPQYGYLTLNDGSQAVGRSSFYCLEYFPSQMLRTGNNFQFSYEFENVPFHSSYAHSQSLDRLMNPLIDQYLYYLSKTINGHDSPHKSGQNQQTLKFSVAGPSNMAVQGRNYIPGPSYRQQRVSTTVTQNNNSEFAWPGASSWALNGRNSLMNPGPAMASHKEGEDRFFPLSGSLIFGKQGTGRDNVDADKVMITNEEEIKTTNPVATESYGQVATNHQSAQAQAQTGWVQNQGILPGMVWQDRDVYLQGPIWAKIPHTDGNFHPSPLMGGFGMKHPPPQILIKNTPVPADPPTAFNKDKLNSFITQYSTGQVSVEIEWELQKENSKRWNPEIQYTSNYYKSNNVEFAVNTEGVYSEPRPIGTRYLTRNL
chain 2: GHDSPHKSGQNQQT

Tests used:
[1] = target: T1, human ALPL expressed on cells (alkaline phosphatase tissue-nonspecific isozyme, NM_000478.4) (human, UniProt P05186 18-501); experiment: cell-based or functional assay
T1 sequence: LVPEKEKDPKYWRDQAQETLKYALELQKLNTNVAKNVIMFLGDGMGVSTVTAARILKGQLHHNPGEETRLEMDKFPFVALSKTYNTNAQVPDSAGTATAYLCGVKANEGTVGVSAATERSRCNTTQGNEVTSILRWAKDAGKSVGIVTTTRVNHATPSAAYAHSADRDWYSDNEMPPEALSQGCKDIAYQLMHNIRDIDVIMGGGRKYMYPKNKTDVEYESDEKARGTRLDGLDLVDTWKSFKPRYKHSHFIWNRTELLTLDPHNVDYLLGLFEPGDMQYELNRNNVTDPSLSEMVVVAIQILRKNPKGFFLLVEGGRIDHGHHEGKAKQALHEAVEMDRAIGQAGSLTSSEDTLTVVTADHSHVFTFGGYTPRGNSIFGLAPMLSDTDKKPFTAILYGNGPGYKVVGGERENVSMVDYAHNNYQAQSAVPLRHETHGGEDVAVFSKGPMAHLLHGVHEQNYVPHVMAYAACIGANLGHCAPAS

[2] = target: T1, human ALPL expressed on cells (alkaline …); experiment: cell-based or functional assay; remark: listed apart in the source
[3] = target: T2, ALPL with a deletion of the ER localization signal (ALPL transcript variant 2, NM_001127501) (human, UniProt P05186 56-501); experiment: cell-based or functional assay
T2 sequence: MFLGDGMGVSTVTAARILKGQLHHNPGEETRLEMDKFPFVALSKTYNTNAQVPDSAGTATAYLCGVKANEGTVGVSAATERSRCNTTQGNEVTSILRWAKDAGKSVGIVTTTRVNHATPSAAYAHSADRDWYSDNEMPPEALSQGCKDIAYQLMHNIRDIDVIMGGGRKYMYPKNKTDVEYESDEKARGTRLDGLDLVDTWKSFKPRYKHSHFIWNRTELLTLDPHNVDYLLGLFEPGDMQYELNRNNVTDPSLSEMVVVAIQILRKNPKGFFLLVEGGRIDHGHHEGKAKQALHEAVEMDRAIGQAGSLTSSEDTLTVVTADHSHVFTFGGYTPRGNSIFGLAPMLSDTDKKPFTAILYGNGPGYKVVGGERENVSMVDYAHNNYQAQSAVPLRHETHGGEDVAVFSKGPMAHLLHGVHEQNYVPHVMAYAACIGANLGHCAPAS

[4] = target: T1, human ALPL expressed on cells (alkaline …); experiment: cell-based or functional assay; remark: listed apart in the source
[5] = target: T3, murine ALPL ortholog expressed on HEK 293T cells (NM_001287172.1) (mouse, UniProt P09242 18-501); experiment: cell-based or functional assay
T3 sequence: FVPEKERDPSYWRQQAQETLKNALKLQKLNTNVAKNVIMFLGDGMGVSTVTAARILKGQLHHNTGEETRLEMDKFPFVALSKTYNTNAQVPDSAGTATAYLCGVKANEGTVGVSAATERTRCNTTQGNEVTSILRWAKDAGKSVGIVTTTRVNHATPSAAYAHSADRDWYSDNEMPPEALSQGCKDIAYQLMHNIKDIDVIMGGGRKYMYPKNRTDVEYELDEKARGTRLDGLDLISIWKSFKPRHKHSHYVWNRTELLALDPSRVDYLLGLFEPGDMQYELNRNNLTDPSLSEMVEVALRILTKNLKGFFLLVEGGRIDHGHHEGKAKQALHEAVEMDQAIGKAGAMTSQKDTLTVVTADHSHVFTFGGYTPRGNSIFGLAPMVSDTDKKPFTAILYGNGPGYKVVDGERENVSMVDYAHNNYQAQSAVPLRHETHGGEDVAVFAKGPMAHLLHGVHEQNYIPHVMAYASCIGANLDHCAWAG

[6] = target: T4, AAVR (universal AAV entry factor) expressed on HEK 293T cells (UniProt Q8IZA0 1-1049); experiment: binding/internalization: AAV incubated 2 or 3 h with AAVR transfected HEK 293T cells, washed, viral genomes quantified
T4 construct: whole, on cells; also called AAVR positive control
T4 sequence: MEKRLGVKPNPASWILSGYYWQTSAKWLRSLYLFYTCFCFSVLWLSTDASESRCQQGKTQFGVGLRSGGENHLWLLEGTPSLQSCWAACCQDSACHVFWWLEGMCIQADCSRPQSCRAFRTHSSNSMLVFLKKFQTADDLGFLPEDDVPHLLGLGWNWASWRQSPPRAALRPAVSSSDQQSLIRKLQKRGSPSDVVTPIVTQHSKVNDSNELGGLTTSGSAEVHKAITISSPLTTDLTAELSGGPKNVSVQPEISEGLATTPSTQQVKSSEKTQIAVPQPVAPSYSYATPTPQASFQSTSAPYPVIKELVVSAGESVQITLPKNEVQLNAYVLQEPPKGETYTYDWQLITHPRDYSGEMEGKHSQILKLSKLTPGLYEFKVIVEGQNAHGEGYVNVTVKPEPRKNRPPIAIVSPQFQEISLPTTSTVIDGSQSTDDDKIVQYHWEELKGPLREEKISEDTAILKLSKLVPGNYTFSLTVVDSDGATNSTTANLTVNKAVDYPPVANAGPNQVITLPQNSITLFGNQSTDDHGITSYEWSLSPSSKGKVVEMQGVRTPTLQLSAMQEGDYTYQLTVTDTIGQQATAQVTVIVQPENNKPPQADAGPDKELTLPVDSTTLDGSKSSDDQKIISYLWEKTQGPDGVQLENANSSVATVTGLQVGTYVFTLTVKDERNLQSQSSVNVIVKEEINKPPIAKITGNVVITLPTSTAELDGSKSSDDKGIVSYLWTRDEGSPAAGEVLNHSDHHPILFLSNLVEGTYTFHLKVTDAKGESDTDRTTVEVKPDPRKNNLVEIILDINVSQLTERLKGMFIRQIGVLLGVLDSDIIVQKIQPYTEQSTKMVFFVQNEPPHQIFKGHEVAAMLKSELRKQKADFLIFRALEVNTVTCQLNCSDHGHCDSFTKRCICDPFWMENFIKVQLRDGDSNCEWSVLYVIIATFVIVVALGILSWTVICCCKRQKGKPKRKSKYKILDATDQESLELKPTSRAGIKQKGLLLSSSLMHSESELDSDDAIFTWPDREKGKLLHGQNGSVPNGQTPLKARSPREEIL

ALPL = target: T5, ALPL (Homo sapiens, UniProt P05186); experiment: Transcytosis assay of AAV particles in MDCK cells engineered to overexpress ALPL; format: cell-based; set-up: expressed in transfected cells; host or cells: MDCK (Madin-Darby Canine Kidney) cells; conditions: qPCR of bottom chamber
T5 sequence (P05186 18-501): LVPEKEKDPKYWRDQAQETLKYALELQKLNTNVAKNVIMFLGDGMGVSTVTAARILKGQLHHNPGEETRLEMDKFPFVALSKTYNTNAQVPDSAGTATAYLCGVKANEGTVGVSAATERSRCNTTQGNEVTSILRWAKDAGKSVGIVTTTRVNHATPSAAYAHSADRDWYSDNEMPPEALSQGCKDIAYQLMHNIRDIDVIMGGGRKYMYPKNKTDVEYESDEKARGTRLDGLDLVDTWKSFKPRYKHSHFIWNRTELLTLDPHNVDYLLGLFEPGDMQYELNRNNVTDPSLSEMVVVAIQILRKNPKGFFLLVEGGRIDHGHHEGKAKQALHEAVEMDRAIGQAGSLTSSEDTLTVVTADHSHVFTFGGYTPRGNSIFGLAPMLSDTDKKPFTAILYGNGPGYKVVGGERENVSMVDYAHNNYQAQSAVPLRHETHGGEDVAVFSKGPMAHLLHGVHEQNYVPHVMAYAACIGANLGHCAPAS

| Molecule | luciferase activity, fold change relative to pCMV6 transfected HEK 293T cells (ALPL transfected cells) [1] [fold] | fold change in luciferase activity relative to the pCMV6 control cells (cells transfected with ALPL) [2] [fold] | fold change in luciferase activity relative to the pCMV6 control cells (cells transfected with ALPL comprising a deletion of the ER localization signal) [3] [fold] | fold change in luciferase activity relative to the pCMV6 control cells (cells transfected with human ALPL protein) [4] [fold] | fold change in luciferase activity relative to the pCMV6 control cells (cells transfected with murine ALPL protein) [5] [fold] | fold change in viral gene expression (2^-ΔΔCT) relative to pCMV6 transfected cells [6] [fold] | transcytosis in MDCK cells that did not express ALPL (ALPL) |
| --- | --- | --- | --- | --- | --- | --- | --- |
| B1 | 44 | 24 | 2 | 24 | 24 | 3.2 | – |
| B2 | – | – | – | – | – | – | No transcytosis was observed |
